Results from patent US20160146786A1, “Method of monitoring cellular trafficking of peptides” (PHYLOGICA LIMITED, priority 2013, published 2016).

Tests used:
[1] = CD spectrophotometry of FITC-labelled peptides; format: physicochemical
[2] = tested on: HEK-293 cells expressing GFP 11+GFP 1-10 fragments; test: Effect of cargo peptides on reconstitution of split GFP activity, transfected constructs (FIG. 17); format: cell-based, human; details: peptide fused to Sumo-GFP 11, expressed from transiently transfected constructs; independent of uptake
Text: FIG. 17 is a graphical representation showing the effect of cargo proteins on reconstitution of split GFP activity in isolated HEK-293 cells expressing GFP 11+GFP 1-10 fragments. HEK-293 cells transfected with GFP 1-10 vectors pcDNA4/TO vector [TO hGFP1-10(a)] or pcDNA4/HM vector [HM hGFP1-10(a)] are shown on the abscissa. Relative fluorescence for each GFP 11 construct added to the cells, normalized for activity in the presence of the MyD88_S11 and mGFP1-10 constructs, is indicated on the y-axis. The GFP 11 constructs lacking cargo peptides were: MyD88-GFP 11 fusion (MyD88_S11); Mal-GFP 11 fusion (Mal_S11), β-actin-GFP 11 fusion β-actin_S11), and Sumo-GFP 11 fusion (Sumo_S11). […]
The inventors have also considered the effect of cargo protein on reconstitution of split GFP activity in isolated HEK-293 cells expressing GFP 11+GFP 1-10 fragments. HEK-293 cells were transfected with GFP 1-10 vectors pcDNA4/TO vector [TO hGFP1-10(a)] or pcDNA4/HM vector [HM hGFP1-10(a)], and recombinant GFP 11-encoding constructs were added to the cells, and fluorescence activity was determined as a normalized value relative to fluorescence obtained for transfections employing MyD88-GFP11 and mGFP1-10 constructs. […]

[3] = target: hGFP1-10(a) (humanized variant of commercially-available mGFP1-10, 'A' variant, expressed from pcDNA4/TO or pcDNA4/HM); test: cell-based or functional assay
[4] = tested on: endosome; details: Sugita et al. 2008; cited from earlier work

Substance	CD spectral analysis, conformation ([1]; NaF Buffer pH 7.2)	CD spectral analysis, conformation ([1]; SDS Micelles pH 7.2)	CD spectral analysis, conformation ([1]; SDS Micelles pH 4.5)	other results
C20_ABH_0304_1746: identified CPP, 38 aa; Transposase fragment [Bordetella pertussis] (PLKPKKPKTQEKKKKQPPKPKKPKTQEKKKKQPPKPKR)	Strong Beta-turn	Strong Beta-turn		
PYC35: cargo protein, which is not a CPP (RSDYKDDDDKAYQSIRSGGIESSSKRER)				Decrease of Sumo_S11 fluorescence (reconstitution of split GFP activity) [2]: no-effect
T08_HBM_0104_0084: identified CPP, 33 aa (RKQKSLQTKLAENPPVPRKKRQSRPRWKQWLQK)	Partially helical	Helical	Helical	
T09_HBM_0103_0167: identified CPP, 32 aa (PSSTPATNVARPRLNPIRGHKFALAVPNSRTR)	Coil with Beta-turn	Coil with Beta-turn	Random coil	CD spectral analysis, conformation ([1]; NaF Buffer pH 4.5): Random coil
TAT-Sumo-GFP 11 fusion				decrease of GFP fluorescence (split GFP reconstitution) relative to Sumo S11 in transiently transfected HEK-293 cells [3]: > 50%
transferrin: named in cited endosome escape study				Efficiency of endosome escape [4]: low
